# Data taken from article PMC12407893 (bioRxiv, 2025).
# B1: GST-fused Prp40 FF2 domain (204–269) (domain or fragment)
# chain: FKEAFQKMLQNNSHIKYYTRWPTAKRLIADEPIYKHSVVNEKTKRQTFQDYIDTLIDTQKESKKKL
# B2: protein A-tagged Prp40, full length (natural protein)
# chain: MSIWKEAKDASGRIYYYNTLTKKSTWEKPKELISQEELLLRENGWKAAKTADGKVYYYNPTTRETSWTIPAFEKKVEPIAEQKHDTVSHAQVNGNRIALTAGEKQEPGRTINEEESQYANNSKLLNVRRRTKEEAEKEFITMLKENQVDSTWSFSRIISELGTRDPRYWMVDDDPLWKKEMFEKYLSNRSADQLLKEHNETSKFKEAFQKMLQNNSHIKYYTRWPTAKRLIADEPIYKHSVVNEKTKRQTFQDYIDTLIDTQKESKKKLKTQALKELREYLNGIITTSSSETFITWQQLLNHYVFDKSKRYMANRHFKVLTHEDVLNEYLKIVNTIENDLQNKLNELRLRNYTRDRIARDNFKSLLREVPIKIKANTRWSDIYPHIKSDPRFLHMLGRNGSSCLDLFLDFVDEQRMYIFAQRSIAQQTLIDQNFEWNDADSDEITKQNIEKVLENDRKFDKVDKEDISLIVDGLIKQRNEKIQQKLQNERRILEQKKHYFWLLLQRTYTKTGKPKPSTWDLASKELGESLEYKALGDEDNIRRQIFEDFKPESSAPTAESATANLTLTASKKRHLTPAVELDY
# B3: GST-fused Prp40 FF1 domain (134–189) (domain or fragment)
# chain: EAEKEFITMLKENQVDSTWSFSRIISELGTRDPRYWMVDDDPLWKKEMFEKYLSNR
# B4: GST-fused Prp40 FF4 domain (351–415) (domain or fragment)
# chain: NYTRDRIARDNFKSLLREVPIKIKANTRWSDIYPHIKSDPRFLHMLGRNGSSCLDLFLDFVDEQR
# B5: GST-fused Prp40 FF3 domain (270–335) (domain or fragment)
# chain: KTQALKELREYLNGIITTSSSETFITWQQLLNHYVFDKSKRYMANRHFKVLTHEDVLNEYLKIVNT
# B6: Prp40 FF4–6 (351–552) (domain or fragment)
# chain: NYTRDRIARDNFKSLLREVPIKIKANTRWSDIYPHIKSDPRFLHMLGRNGSSCLDLFLDFVDEQRMYIFAQRSIAQQTLIDQNFEWNDADSDEITKQNIEKVLENDRKFDKVDKEDISLIVDGLIKQRNEKIQQKLQNERRILEQKKHYFWLLLQRTYTKTGKPKPSTWDLASKELGESLEYKALGDEDNIRRQIFEDFKPE
# B7: GST-fused Prp40 FF6 extension (488–583) (domain or fragment)
# chain: NERRILEQKKHYFWLLLQRTYTKTGKPKPSTWDLASKELGESLEYKALGDEDNIRRQIFEDFKPESSAPTAESATANLTLTASKKRHLTPAVELDY
# How the values were obtained:
# [1] = molecular target: T1, yeast RNA polymerase II (pol II) WT, TAP tag on RPB3 (S. cerevisiae, UniProt P04050;P08518;P16370;P20433;P20434;P20435;P34087;P20436;P27999;P22139;P38902;P40 …); experiment: pull-down
# [2] = molecular target: T1, yeast RNA polymerase II (pol II) WT, …; experiment: pull-down; remark: listed apart in the source
# [3] = molecular target: RPB1, as subunit of purified yeast pol II (S. cerevisiae, UniProt P04050 1-1733); experiment: cross-linking
# Sequence of RPB1, as subunit of purified yeast pol II (P04050 whole entry): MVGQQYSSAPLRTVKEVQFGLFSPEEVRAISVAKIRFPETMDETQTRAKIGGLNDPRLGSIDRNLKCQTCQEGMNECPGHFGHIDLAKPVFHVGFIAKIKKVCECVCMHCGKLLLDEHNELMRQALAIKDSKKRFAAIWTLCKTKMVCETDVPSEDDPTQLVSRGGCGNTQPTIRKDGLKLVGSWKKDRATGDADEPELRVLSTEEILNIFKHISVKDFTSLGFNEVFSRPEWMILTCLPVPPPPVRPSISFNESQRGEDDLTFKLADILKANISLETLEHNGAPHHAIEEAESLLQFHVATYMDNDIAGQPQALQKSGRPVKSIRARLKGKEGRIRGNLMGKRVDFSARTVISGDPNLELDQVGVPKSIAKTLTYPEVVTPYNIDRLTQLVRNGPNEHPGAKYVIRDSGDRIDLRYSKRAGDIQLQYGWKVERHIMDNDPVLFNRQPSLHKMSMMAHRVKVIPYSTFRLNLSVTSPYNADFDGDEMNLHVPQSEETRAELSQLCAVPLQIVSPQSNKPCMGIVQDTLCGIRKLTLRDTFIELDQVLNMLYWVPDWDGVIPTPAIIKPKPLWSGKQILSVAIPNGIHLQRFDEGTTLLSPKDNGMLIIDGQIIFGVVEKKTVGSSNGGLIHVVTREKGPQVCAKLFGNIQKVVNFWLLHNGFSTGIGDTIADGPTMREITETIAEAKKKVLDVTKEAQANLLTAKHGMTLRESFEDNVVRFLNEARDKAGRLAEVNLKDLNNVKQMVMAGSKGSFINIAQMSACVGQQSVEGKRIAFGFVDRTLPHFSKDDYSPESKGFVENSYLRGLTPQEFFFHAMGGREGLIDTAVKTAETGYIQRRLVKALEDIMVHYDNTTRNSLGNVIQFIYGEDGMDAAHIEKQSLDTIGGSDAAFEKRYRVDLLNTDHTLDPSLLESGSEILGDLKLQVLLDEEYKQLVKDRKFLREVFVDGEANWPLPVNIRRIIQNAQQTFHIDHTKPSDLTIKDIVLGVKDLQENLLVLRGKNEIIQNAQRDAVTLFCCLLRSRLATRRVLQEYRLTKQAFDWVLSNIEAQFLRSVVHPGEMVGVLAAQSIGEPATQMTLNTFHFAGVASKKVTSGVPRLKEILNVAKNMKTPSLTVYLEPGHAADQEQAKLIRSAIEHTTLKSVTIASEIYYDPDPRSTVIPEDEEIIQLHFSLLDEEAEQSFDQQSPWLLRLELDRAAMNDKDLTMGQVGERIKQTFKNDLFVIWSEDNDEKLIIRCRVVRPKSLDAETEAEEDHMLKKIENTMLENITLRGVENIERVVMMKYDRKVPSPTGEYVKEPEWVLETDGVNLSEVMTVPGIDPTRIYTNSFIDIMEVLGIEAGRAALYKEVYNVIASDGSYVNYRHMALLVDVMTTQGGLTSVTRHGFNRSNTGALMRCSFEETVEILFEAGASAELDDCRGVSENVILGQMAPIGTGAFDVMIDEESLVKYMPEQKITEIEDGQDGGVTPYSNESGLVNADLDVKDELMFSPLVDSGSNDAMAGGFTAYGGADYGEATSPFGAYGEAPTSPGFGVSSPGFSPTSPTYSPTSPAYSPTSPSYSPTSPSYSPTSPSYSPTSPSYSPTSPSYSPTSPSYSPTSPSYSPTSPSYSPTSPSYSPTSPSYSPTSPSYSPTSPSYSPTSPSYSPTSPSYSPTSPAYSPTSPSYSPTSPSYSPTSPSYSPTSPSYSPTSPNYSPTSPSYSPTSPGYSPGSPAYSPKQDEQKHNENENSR
# [4] = molecular target: T1, yeast RNA polymerase II (pol II) WT, …; experiment: cross-linking
# [5] = molecular target: T2, RPB5, as subunit of purified yeast pol II (S. cerevisiae, UniProt P20434 1-215); experiment: cross-linking
# T2 sequence: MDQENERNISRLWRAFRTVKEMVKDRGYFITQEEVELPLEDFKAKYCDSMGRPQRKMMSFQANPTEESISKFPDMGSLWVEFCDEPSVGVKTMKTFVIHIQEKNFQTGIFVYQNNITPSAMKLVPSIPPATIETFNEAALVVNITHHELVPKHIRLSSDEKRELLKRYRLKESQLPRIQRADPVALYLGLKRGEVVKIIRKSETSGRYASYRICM
Binder,binding result [1],further results
B1,binds,–
B2,–,binding result [2]: binds
B3,binds,–
B4,binds,–
B5,binds,–
B6,–,binding result [3]: binds; binding result [4]: binds; binding result [5]: binds
B7,binds,–
